Results taken from US20260209387A1, “SINGLE-DOMAIN ANTIBODY FOR INHIBITION OF NEUTROPHIL ELASTASE ACTIVITY” (UNIVERSITE DE LIEGE, priority 2023, published 2026).

Experiments:
human cathepsin G (hCG) = molecular target: T1, human cathepsin G (hCG) (Homo sapiens, UniProt P08311); experiment: hCG inhibition, substrate N-Succinyl-Ala-Ala-Pro-Phe p-nitroanilide; type: biochemical; settings: chromogenic substrate
T1 construct: purchased Calbiochem
T1 sequence (P08311 21-244): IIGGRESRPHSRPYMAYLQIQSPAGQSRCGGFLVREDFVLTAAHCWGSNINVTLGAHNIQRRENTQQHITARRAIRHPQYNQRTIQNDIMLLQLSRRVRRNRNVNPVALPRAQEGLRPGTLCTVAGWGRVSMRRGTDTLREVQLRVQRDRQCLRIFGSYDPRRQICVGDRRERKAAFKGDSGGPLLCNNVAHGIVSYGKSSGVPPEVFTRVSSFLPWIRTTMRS
Source text: To determine whether NbE201 was specific for hNE, we first investigated its ability to inhibit several serine proteases: pancreatic elastase from pork (pPE, 39.2% sequence identity, from Sigma), mice neutrophil elastase (mNE, 74.9% sequence identity, from EPC) and with two other human serine proteases present in the lung: proteinase 3 (hPR3 from EPC, 54.7% sequence identity) and cathepsin G (hCG from Calbiochem, 36.7% sequence identity). The substrate used were Succinyl-Ala-Ala-Ala-paraNitroAnilide (1 mM in 0.1 M Tris pH 7.5 with NaCl 0.5 M and NaN3 0.01%, % w/v from Sigma-Aldrich) for pPE, MeOSuc-Ala-Ala-Pro-Val-AMC (100 μM in Tris 50 mM, NaCl 1 M, 0.05% (% w/v) Brij-35, pH 7.5) for mNE, N-Succinyl-Ala-Ala-Pro-Phe p-nitroanilide (0.45 mM in 100 mM HEPES pH 7.5, from Sigma Aldrich) for hCG and Boc-Ala-Ala-Nva-SBzl (0.22 mM in 100 mM MOPS pH 5.0 0.5 M NaCl, 100 μM DTNB, DMSO 10%, from EPC) for PR3. mNE (rmELA2 from R&D systems, United Kingdom) was first activated according to the supplier information. In brief, mNE was incubated with recombinant mouse active cathepsin C/DPPIy (rmCathepsin C from R&D systems) in MES 50 mM, NaCl 50 mM, pH 5.5 for 2 h at 37° C. The enzyme concentration in the assay was 6 nM, 14.7 nM, 25 nM, 5 nM for PPE, mNE, hCG and hPR3, respectively. Different molar ratios of NbE201: Enzyme were tested. […]

[1] = molecular target: T2, human proteinase 3 (hPR3) (Homo sapiens, UniProt P24158); experiment: BLI binding to other serine proteases: hPR3; settings: 50 nM protease
T2 construct: purchased EPC (Elastin Products Company)
T2 sequence (P24158 28-248): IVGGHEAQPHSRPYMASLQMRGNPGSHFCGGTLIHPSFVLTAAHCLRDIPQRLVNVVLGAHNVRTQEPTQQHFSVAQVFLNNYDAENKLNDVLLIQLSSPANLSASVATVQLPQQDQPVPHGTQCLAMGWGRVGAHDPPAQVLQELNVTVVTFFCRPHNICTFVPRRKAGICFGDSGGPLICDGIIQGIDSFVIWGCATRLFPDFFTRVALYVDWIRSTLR
Procedure: (§1) The specificity of NbE201 for hNE was also investigated by BLI. Biotinylated NbE201 (10 μg/mL) was immobilized on streptavidin biosensors (SA, Sartorius) following provider's indications. The biosensors were then immersed in a 50 nM solution of a serine protease. The proteases tested were human cathepsin G (hCG), human proteinase 3 (hPR3), mouse pancreatic elastase (mPE), mouse neutrophil elastase (mNE) and porcine pancreatic elastase (pPE). hNE was used a positive control. The association and dissociation were measured for 70 s and 320 s respectively, in kinetic buffer (KB, Sartorius). The experiments were carried out at 30° C. in 384-wells black-bottom microplates in polypropylene (Greiner Bio-One, Belgium) and with orbital agitation (1000 rpm).

[2] = system: mouse pancreatic elastase (mPE); experiment: BLI binding to other serine proteases: mPE; settings: 50 nM protease
Procedure: as §1

hNE = molecular target: T3, hNE (Homo sapiens, UniProt P08246); experiment: Stability of NbE201 towards hNE (SDS-PAGE, 37° C.); type: in vitro ADME
T3 construct: purchased Elastin Products Company (EPC)
T3 sequence (P08246 30-247): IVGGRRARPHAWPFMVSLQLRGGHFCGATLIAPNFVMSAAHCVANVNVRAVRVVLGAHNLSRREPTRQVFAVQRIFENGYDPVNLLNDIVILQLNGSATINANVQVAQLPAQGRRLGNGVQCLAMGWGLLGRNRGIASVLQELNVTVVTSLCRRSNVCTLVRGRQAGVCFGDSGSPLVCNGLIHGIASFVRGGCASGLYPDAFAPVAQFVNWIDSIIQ
Procedure: NbE201 (26.4 μM) was incubated at 37° C. alone or in the presence of hNE ([NbE201]: [hNE]=4:1). Aliquots (10 μL) taken at different time intervals were mixed with 4 μL of sample loading buffer (Tris-HCl (pH 6.8), SDS denaturant (4%, % w/v), β-mercaptoethanol (5%, % v/v), bromophenol blue (0.01%, % w/v), glycerol (20%, % v/v), H2O)) and then stored at −20° C. until analysis by SDS-PAGE using 4-20% Mini-PROTEAN TGX Protein Gel, 10 wells, 50 μL (Bio-Rad, Germany). Then, the gel was stained by Coomassie blue, destained in water and imaged using a Gel Doc EZ Imager (Biorad). The relative amount of intact protein was quantified by densitometry analysis with a Gel Doc EZ Imager program using the intensity of the band at time zero as the relative standard. hNE alone was incubated on similar conditions and an aliquot was taken at different time points to measure its activity using N-Succinyl-Ala-Ala-Ala-paraNitroAnilide as substrate as describe above.

B1: NbE201: anti-hNE ISVD (VHH/nanobody) from immunized lama, amino acid sequence SEQ ID NO: 4 (protein)
VHH: QVQLQESGGGLVQAGGSLRLSCVVPGRTISLYRMGWFRQAPGKEREFVAGINWSGDMTDYVDSVKGRFTISRDNAKNTVYLEMNSLKPEDTAIYYCTADPKLLPLADSSYGYWGQGTQVTVSS
Human cathepsin G (hCG)
  inhibition of human cathepsin G: does not inhibit
[1]
  binding to hPR3 by BLI: does not bind to the other proteases
[2]
  binding to mPE by BLI: does not bind to the other proteases
hNE; 37° C., [NbE201]:[hNE] 4:1
  time NbE201 is stable in presence of hNE: 14 days
hNE; in presence of hNE, [NbE201]:[hNE] 4:1, 37° C., 14 days
  percentage of remaining complex (intact NbE201) over time: around 100%
